Experiments:
N-type calcium channels = N-type calcium channels (Mus musculus, UniProt O55017); format: cell-based, Swiss mice
IL-8RB = target: T1, IL-8RB (Homo sapiens, UniProt P25025); experiment: Competitive binding assay, IL-8/IL-8RB; details: peptide at 10 μM
T1 sequence (P25025 1-360): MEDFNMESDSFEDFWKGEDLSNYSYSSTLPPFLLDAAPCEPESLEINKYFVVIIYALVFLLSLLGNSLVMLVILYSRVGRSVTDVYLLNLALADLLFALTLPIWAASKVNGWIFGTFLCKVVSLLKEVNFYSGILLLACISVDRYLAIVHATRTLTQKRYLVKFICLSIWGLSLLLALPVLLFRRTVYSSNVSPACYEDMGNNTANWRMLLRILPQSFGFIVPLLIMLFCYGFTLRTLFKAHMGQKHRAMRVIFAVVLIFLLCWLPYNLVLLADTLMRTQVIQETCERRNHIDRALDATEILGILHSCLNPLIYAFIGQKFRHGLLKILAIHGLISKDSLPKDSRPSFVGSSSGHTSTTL

Row | Sequence | Ca^2+ current shown as a percentage (N-type calcium channels) | inhibition of N-type calcium channel activity (N-type calcium channels) | inhibition of IL-8/IL-8RB (IL-8RB) [%] | frequency (use) dependence of block of Ca^2+ currents (N-type calcium channels) | voltage dependence of inhibition of Ca^2+ current (N-type calcium channels)
1 | FGRKKRRQRRRKLSSIESDV (synthetic 1993 peptide F-Tat-NR2B9c) [Peptide 1993, variant in which the Y residue at position 1 of Tat-NR2B9c was mutated to F] | 91+/−1.6% | no significant inhibition |  |  | 
2 | YGRKKRRQRRRKLSSIESDV [Tat-NR2B9c] (Synthetic peptide Tat-NR2B9c) [chimeric peptide of a standard tat peptide and …] | 68+/−1.7% |  | 80 | not frequency dependent | voltage-independent manner

Reference: US9365620B2, “Methods for treating pain” (NoNO NC., priority 2008, dated 2016)
